Laboratory results as given in paper PMC3246388 (Biomacromolecules, 2011).

Target: the molecule itself
Test: SEC + other: dynamic light scattering + other: transmission electron microscopy

B1: bacteriophage Qβ coat protein, assembled as the recombinant virus-like particle (natural protein)
chain: MAKLETVTLGNIGKDGKQTLVLNPRGVNPTNGVASLSQAGAVPALEKRVTVSVSQPSRNRKNYKVQVKIQNPTACTANGSCDPSVTRQAYADVTFSFTQYSTDEERAFVRTELAALLASPLLIDAIDQLNPAY
binding result: binds
